The source of these data is US20260103522A1 (LONGBIO PHARMA SUZHOU, published 2026).

B1: Her2-specific binding protein DB872 (antibody, human IgG1, kappa)
heavy: EVQLVESGGGLVQPGGSLRLSCAASGFTFTDYTMDWVRQAPGKGLEWVADVNPNSGGSIYNQRFKGRFTLSVDRSKNTLYLQMNSLRAEDTAVYYCARNLGPSFYFDYWGQGTLVTVSSASTKGPSVFPLAPSSKSTSGGTAALGCLVKDYFPEPVTVSWNSGALTSGVHTFPAVLQSSGLYSLSSVVTVPSSSLGTQTYICNVNHKPSNTKVDKKVEPKSCDKTHTCPPCPADSNPRGVSVFLFPPKPKDTLMISRTPEVTCVVVDLAPSKGTVKFNWYVDGVEVHNAKTKPREKQRNGTLTVVSVLTVLHQDWLNGKEYKCKVTHPHLPRALEKTISKAKGQPREPQVYTLPPSREEMTKNQVSLTCLVKGFYPSDIAVEWESNGQPENNYKTTPPVLDSDGSFFLYSKLTVDKSRWQQGNVFSCSVMHEALHNHYTQKSLSLSPGK
light: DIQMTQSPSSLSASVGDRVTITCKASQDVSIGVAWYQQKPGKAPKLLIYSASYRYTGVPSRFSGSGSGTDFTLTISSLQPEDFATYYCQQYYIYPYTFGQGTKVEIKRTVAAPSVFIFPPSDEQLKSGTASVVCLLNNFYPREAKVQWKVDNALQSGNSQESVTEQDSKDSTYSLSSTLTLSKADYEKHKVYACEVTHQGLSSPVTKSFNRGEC
notes: IgG-like molecule: Pertuzumab Fab fused to the engineered Fc (on the basis of DB366); copies: 2 + 2
B2: Her2-specific binding protein DB871 (antibody)
heavy: EVQLVESGGGLVQPGGSLRLSCAASGFTFTDYTMDWVRQAPGKGLEWVADVNPNSGGSIYNQRFKGRFTLSVDRSKNTLYLQMNSLRAEDTAVYYCARNLGPSFYFDYWGQGTLVTVSSASTKGPSVFPLAPSSKSTSGGTAALGCLVKDYFPEPVTVSWNSGALTSGVHTFPAVLQSSGLYSLSSVVTVPSSSLGTQTYICNVNHKPSNTKVDKKVEPKSCSRDFTPPTVKILQSSCDGGGHFPPTIQLLCLVSGYTPGTINITWLEDGQVMDVDLSTASTTQEGELASTQSELTLSQKHWLSDRTYTCQVTYQGHTFEDSTKKCADSNPRGVSVFLFPPKPKDTLMISRTPEVTCVVVDLAPSKGTVKFNWYVDGVEVHNAKTKPREKQRNGTLTVVSVLTVLHQDWLNGKEYKCKVTHPHLPRALEKTISKAKGQPREPQVYTLPPSREEMTKNQVSLTCLVKGFYPSDIAVEWESNGQPENNYKTTPPVLDSDGSFFLYSKLTVDKSRWQQGNVFSCSVMHEALHNHYTQKSLSLSPGK
light: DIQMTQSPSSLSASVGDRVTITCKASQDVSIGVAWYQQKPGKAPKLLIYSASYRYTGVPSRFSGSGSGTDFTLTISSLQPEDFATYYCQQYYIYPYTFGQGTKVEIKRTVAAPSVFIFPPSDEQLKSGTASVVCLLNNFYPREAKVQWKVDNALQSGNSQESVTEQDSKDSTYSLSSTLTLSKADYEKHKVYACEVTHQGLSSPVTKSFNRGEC
notes: IgG-like molecule: Pertuzumab Fab fused to the engineered Fc (on the basis of DB177); copies: 2 + 2
B3: GPC3-specific binding protein DB-B230 (antibody, human IgG1, kappa)
heavy: QVQLVQSGAEVKKPGASVKVSCKASGYTFTDYEMHWVRQAPGQGLEWMGALDPKTGDTAYSQKFKGRVTLTADKSTSTAYMELSSLTSEDTAVYYCTRFYSYTYWGQGTLVTVSSASTKGPSVFPLAPSSKSTSGGTAALGCLVKDYFPEPVTVSWNSGALTSGVHTFPAVLQSSGLYSLSSVVTVPSSSLGTQTYICNVNHKPSNTKVDKKVEPKSCDKTHTCPPCPADSNPRGVSVFLFPPKPKDTLMISRTPEVTCVVVDLAPSKGTVKFNWYVDGVEVHNAKTKPREKQRNGTLTVVSVLTVLHQDWLNGKEYKCKVTHPHLPRALEKTISKAKGQPREPQVYTLPPSREEMTKNQVSLTCLVKGFYPSDIAVEWESNGQPENNYKTTPPVLDSDGSFFLYSKLTVDKSRWQQGNVFSCSVMHEALHNHYTQKSLSLSPGK
light: DVVMTQSPLSLPVTPGEPASISCRSSQSLVHSNRNTYLHWYLQKPGQSPQLLIYKVSNRFSGVPDRFSGSGSGTDFTLKISRVEAEDVGVYYCSQNTHVPPTFGQGTKLEIKRTVAAPSVFIFPPSDEQLKSGTASVVCLLNNFYPREAKVQWKVDNALQSGNSQESVTEQDSKDSTYSLSSTLTLSKADYEKHKVYACEVTHQGLSSPVTKSFNRGEC
notes: IgG-like molecule: Codrituzumab Fab fused to the engineered Fc; copies: 2 + 2
B4: GPC3-specific binding protein DB-B229 (antibody)
heavy: QVQLVQSGAEVKKPGASVKVSCKASGYTFTDYEMHWVRQAPGQGLEWMGALDPKTGDTAYSQKFKGRVTLTADKSTSTAYMELSSLTSEDTAVYYCTRFYSYTYWGQGTLVTVSSASTKGPSVFPLAPSSKSTSGGTAALGCLVKDYFPEPVTVSWNSGALTSGVHTFPAVLQSSGLYSLSSVVTVPSSSLGTQTYICNVNHKPSNTKVDKKVEPKSCSRDFTPPTVKILQSSCDGGGHFPPTIQLLCLVSGYTPGTINITWLEDGQVMDVDLSTASTTQEGELASTQSELTLSQKHWLSDRTYTCQVTYQGHTFEDSTKKCADSNPRGVSVFLFPPKPKDTLMISRTPEVTCVVVDLAPSKGTVKFNWYVDGVEVHNAKTKPREKQRNGTLTVVSVLTVLHQDWLNGKEYKCKVTHPHLPRALEKTISKAKGQPREPQVYTLPPSREEMTKNQVSLTCLVKGFYPSDIAVEWESNGQPENNYKTTPPVLDSDGSFFLYSKLTVDKSRWQQGNVFSCSVMHEALHNHYTQKSLSLSPGK
light: DVVMTQSPLSLPVTPGEPASISCRSSQSLVHSNRNTYLHWYLQKPGQSPQLLIYKVSNRFSGVPDRFSGSGSGTDFTLKISRVEAEDVGVYYCSQNTHVPPTFGQGTKLEIKRTVAAPSVFIFPPSDEQLKSGTASVVCLLNNFYPREAKVQWKVDNALQSGNSQESVTEQDSKDSTYSLSSTLTLSKADYEKHKVYACEVTHQGLSSPVTKSFNRGEC
notes: as for B3
B5: binding protein DB366 (designed binder)
chain: CADSNPRGVSVFLFPPKPKDTLMISRTPEVTCVVVDLAPSKGTVKFNWYVDGVEVHNAKTKPREKQRNGTLTVVSVLTVLHQDWLNGKEYKCKVTHPHLPRALEKTISKAKGQPREPQVYTLPPSREEMTKNQVSLTCLVKGFYPSDIAVEWESNGQPENNYKTTPPVLDSDGSFFLYSKLTVDKSRWQQGNVFSCSVMHEALHNHYTQKSLSLSPGK
notes: Engineered IgG Fc with IgE CH3 loops
B6: binding protein DB-B63 (designed binder)
chain: CADSNPRGVSVFLFPPKPKDTLMISRTPEVTCVVVDLAPSKGTVNFNWYVDGVEVHNAKTKPREKQRNGTLTVVSVLTVLHQDWLNGKEYKCRVTHPHLPRALEKTISKAKGQPREPQVYTLPPSREEMTKNQVSLTCLVKGFYPSDIAVEWESNGQPENNYKTTPPVLDSDGSFFLYSKLTVDKSRWQQGNVFSCSVMHEALHNHYTQKSLSLSPGK
notes: as for B5
B7: binding protein DB364 (designed binder)
chain: DFTPPTVKILQSSCDGGGHFPPTIQLLCLVSGYTPGTINITWLEDGQVMDVDLSTASTTQEGELASTQSELTLSQKHWLSDRTYTCQVTYQGHTFEDSTKKCADSNPRGVSVFLFPPKPKDTLMISRTPEVTCVVVDLAPSKGTVKFNWYVDGVEVHNAKTKPREKQRNGTLTVVSVLTVLHQDWLNGKEYKCKVTHPHLPRALEKTISKAKGQPREPQVYTLPPSREEMTKNQVSLTCLVKGFYPSDIAVEWESNGQPENNYKTTPPVLDSDGSFFLYSKLTVDKSRWQQGNVFSCSVMHEALHNHYTQKSLSLSPGK
notes: as for B5
B8: binding protein DB365 (designed binder)
chain: TKKCADSNPRGVSVFLFPPKPKDTLMISRTPEVTCVVVDLAPSKGTVKFNWYVDGVEVHNAKTKPREKQRNGTLTVVSVLTVLHQDWLNGKEYKCKVTHPHLPRALEKTISKAKGQPREPQVYTLPPSREEMTKNQVSLTCLVKGFYPSDIAVEWESNGQPENNYKTTPPVLDSDGSFFLYSKLTVDKSRWQQGNVFSCSVMHEALHNHYTQKSLSLSPGK
notes: as for B5
B9: binding protein DB177 (designed binder)
chain: CSRDFTPPTVKILQSSCDGGGHFPPTIQLLCLVSGYTPGTINITWLEDGQVMDVDLSTASTTQEGELASTQSELTLSQKHWLSDRTYTCQVTYQGHTFEDSTKKCADSNPRGVSVFLFPPKPKDTLMISRTPEVTCVVVDLAPSKGTVKFNWYVDGVEVHNAKTKPREKQRNGTLTVVSVLTVLHQDWLNGKEYKCKVTHPHLPRALEKTISKAKGQPREPQVYTLPPSREEMTKNQVSLTCLVKGFYPSDIAVEWESNGQPENNYKTTPPVLDSDGSFFLYSKLTVDKSRWQQGNVFSCSVMHEALHNHYTQKSLSLSPGK
notes: Engineered human IgG Fc whose CH2 carries BC-LOOP, DE-TURN and FG-LOOP of IgE CH3
B10: binding protein DB-B64 (designed binder)
chain: CPAPELLGGPSVFLFPPKPKDTLMISRTPEVTCVVVDLAPSKGTVKFNWYVDGVEVHNAKTKPREKQRNGTLTVVSVLTVLHQDWLNGKEYKCKVTHPHLPRALEKTISKAKGQPREPQVYTLPPSREEMTKNQVSLTCLVKGFYPSDIAVEWESNGQPENNYKTTPPVLDSDGSFFLYSKLTVDKSRWQQGNVFSCSVMHEALHNHYTQKSLSLSPGK
notes: as for B5

T1 sequence (P12319 26-205): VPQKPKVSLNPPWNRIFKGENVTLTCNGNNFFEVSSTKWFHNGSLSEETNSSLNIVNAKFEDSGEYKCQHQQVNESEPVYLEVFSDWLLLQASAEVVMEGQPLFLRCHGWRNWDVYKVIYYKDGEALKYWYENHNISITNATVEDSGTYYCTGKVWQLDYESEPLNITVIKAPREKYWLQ

This assay has as its target T1, recombinant human FcεRIa extracellular region-mouse IgG2a Fc-6×His fusion protein (human; mouse, UniProt P12319 26-205).
T1 construct: extracellular domain; Self-produced; also called FcεRIa-mG2Ahis; DB3967; not shown: mouse IgG2a Fc
Nature of the assay: BLI (GatorBio), FcεRIa-mG2Ahis loaded on Anti-HIS probe, binding protein at 200, 50, 12.5 nM. The source says: In order to verify the binding ability of the binding proteins to FcεRIa, the Bio-layer Interferometry (BLI, GatorBio) was used to detect the affinity of the binding proteins to FcεRIa. The detailed affinity assay method can be found in the usage or application instructions of the GatorBio instrument, which was briefly described as follows: […]
As for B1, the Kd is approximately 1 nM. As for B2, the Kd is approximately 1 nM. Consider B3, for which the Kd was approximately 1 nM. Under B4 stands approximately 1 nM; under B5, approximately 1 nM; under B6, approximately 1 nM. For B7, the dissociation constant (Kd) is approximately 1 nM. In the case of B8, the Kd was approximately 1 nM. For B9, the Kd is approximately 1 nM. As for B10, the Kd was approximately 1 nM.
